Ends that are not written are not given here.

In data set [1] the test system is TCR^FLT3D/Y cells. The conditions noted are these: 28 candidate 9mers from the human proteome pulsed on K562 cells. Here is the method:
TCR-transduced T cells were co-cultured with cell lines or primary patient tumor cells at an effector:target cell ratio of 1:2 (100,000:200,000 cells/well) and reactivity was investigated by measuring CD137 upregulation or release of IFN-γ. […] Cells were placed in round or flat bottom 96-well plates and after 18-20 h of co-incubation centrifuged at 700 g for 2 min. Supernatants were harvested for measurement of IFN-γ by ELISA, while cells were washed and stained with anti-CD137. In some experiments, transduced T cells were labeled with 0.75 µM CTV to distinguish them from target cells. Reagents for IFN-γ ELISA were acquired from BD Pharmingen or R&D Systems: mouse anti-human IFN-γ capture antibody (NIB42), Biotin Mouse Anti-Human IFN-γ detection antibody (4S.B3), streptavidin-HRP, stabilized tetramethylbenzidine and hydrogen peroxide as substrate solutions, sulfuric acid as stop solution, and recombinant human IFN-γ protein as standard. The assay was performed according to manufacturer's instructions.

Data set [2] has as its target HLA-A2 presenting the cognate NY-ESO1 peptide (human) (UniProt P78358). Nature of the data set: cell-based or functional assay.
Data set [3] concerns the target T1, LZTR1 peptide on HLA-A*02:01 (human).
T1 peptide: AVISDAMYI
Nature of the data set: cytokine release.

Data set [4] addresses T2, MED1 peptide on HLA-A*02:01 (human).
T2 peptide: YITSDMFYV
Description: cytokine release.

Data set [5] deals with T3, PRADC1 peptide on HLA-A*02:01 (human).
T3 peptide: AVDNDSFYV
Nature of the data set: cytokine release.

The target of data set [6] is T4, FLT3 wild type peptide on HLA-A*02:01 (human).
T4 peptide: DIMSDSNYV
Description: multimer staining.

Data set [7] deals with T5, FLT3 D835Y peptide on HLA-A*02:01 (human).
T5 peptide: YIMSDSNYV
Nature of the data set: CD137 upregulation; transduced T cells of 4 donors against HLA-A2-transduced K562 pulsed with titrated peptide; full-length, on cells.

For the molecule AVDNDSFYV [peptide 15], the “activation of TCR^FLT3D/Y cells (IFN-γ production)” value (“activation of TCR^FLT3D/Y cells” below) in data set [1] is recorded as “activated”. Molecule NY-ESO1-specific TCR 1G4 came in with a T cell activation by peptide-pulsed target cells, EC50 in data set [2] of 5.5 nM.

YITSDMFYV [peptide 12]: in data set [1], the “activation of TCR^FLT3D/Y cells” value was “activated”. Consider AVISDAMYI [peptide 11], for which the “activation of TCR^FLT3D/Y cells” value in data set [1] was “activated”.

B1: TCR^FLT3D/Y (TCR, V domains shown)
Valpha: ELKVEQNPLFLSMQEGKNYTIYCNYSTTSDRLYWYRQDPGKSLESLFVLLSNGAVKQEGRLMASLDTKARLSTLHITAAVHDLSATYFCAVVGGSQGNLIFGKGTKLSVKP
Vbeta: DVKVTQSSRYLVKRTGEKVFLECVQDMDHENMFWYRQDPGLGLRLIYFSYDVKMKEKGDIPEGYSVSREKKERFSLILESASTNQTSMYLCASSLSPGGGYGYTFGSGTRLTVV
Regarding B1, the binding result in data set [3] is on record as “recognises”; in data set [4] it was “recognises”; in data set [5], “recognises”; in data set [6], “no recognition”. The EC50 of peptide in data set [7] stood at 0.081 nM.
